Test results reported in patent US20170363643A1.

Key:
[1] = target: His-tagged recombinant human SMN protein (ProteinTech, catalog # ag14333) (human) (UniProt Q16637); test: Erenna sandwich assay, capture MABE230 12.5 µg/mg MPs; Det Ab 500 ng/mL; SMN 0.12 pg/mL
[2] = target: His-tagged recombinant human SMN protein (ProteinTech, catalog # ag14333) (human) (UniProt Q16637); test: Erenna sandwich assay, capture MABE230 12.5 µg/mg MPs; Det Ab 500 ng/mL; SMN 0.46 pg/mL
[3] = target: His-tagged recombinant human SMN protein (ProteinTech, catalog # ag14333) (human) (UniProt Q16637); test: Erenna sandwich assay, capture MABE230 12.5 µg/mg MPs; Det Ab 1000 ng/mL; SMN 0.06 pg/mL
[4] = target: His-tagged recombinant human SMN protein (ProteinTech, catalog # ag14333) (human) (UniProt Q16637); test: Erenna sandwich assay, capture MABE230 12.5 µg/mg MPs; Det Ab 1000 ng/mL; SMN 0.23 pg/mL
[5] = target: His-tagged recombinant human SMN protein (ProteinTech, catalog # ag14333) (human) (UniProt Q16637); test: Erenna sandwich assay, capture MABE230 12.5 µg/mg MPs; Det Ab 1000 ng/mL; SMN 0.93 pg/mL
[6] = target: His-tagged recombinant human SMN protein (ProteinTech, catalog # ag14333) (human) (UniProt Q16637); test: Erenna sandwich assay, capture MABE230 12.5 µg/mg MPs; Det Ab 1000 ng/mL; SMN 1.85 pg/mL
[7] = target: His-tagged recombinant human SMN protein (ProteinTech, catalog # ag14333) (human) (UniProt Q16637); test: Erenna sandwich assay, capture MABE230 12.5 µg/mg MPs; Det Ab 1000 ng/mL; SMN 3.70 pg/mL
[8] = target: His-tagged recombinant human SMN protein (ProteinTech, catalog # ag14333) (human) (UniProt Q16637); test: Erenna sandwich assay, capture MABE230 12.5 µg/mg MPs; Det Ab 500 ng/mL; SMN 66.67 pg/mL
[9] = target: His-tagged recombinant human SMN protein (ProteinTech, catalog # ag14333) (human) (UniProt Q16637); test: Erenna sandwich assay, capture MABE230 12.5 µg/mg MPs; Det Ab 1000 ng/mL; SMN 22.22 pg/mL
[10] = target: His-tagged recombinant human SMN protein (ProteinTech, catalog # ag14333) (human) (UniProt Q16637); test: Erenna sandwich assay, capture MABE230 12.5 µg/mg MPs; Det Ab 1000 ng/mL; SMN 200.00 pg/mL
[11] = target: endogenous SMN protein in human CSF (human) (UniProt Q16637); test: Erenna sandwich assay, capture MABE230; human CSF sample 3, unspiked (endogenous SMN only)
[12] = target: endogenous SMN protein in human CSF (human) (UniProt Q16637); test: Erenna sandwich assay, capture MABE230; human CSF sample 5, unspiked (endogenous SMN only)
[13] = target: His-tagged recombinant human SMN protein (ProteinTech, catalog # ag14333) (human) (UniProt Q16637); test: Erenna sandwich assay, capture MABE230; SMN 2 pg/mL, MPs 5 µg/well, Det Ab 50 ng/mL, Cap Ab/MP 25 µg/mg
[14] = target: His-tagged recombinant human SMN protein (ProteinTech, catalog # ag14333) (human) (UniProt Q16637); test: Erenna sandwich assay, capture MABE230; SMN 2 pg/mL, MPs 10 µg/well, Det Ab 50 ng/mL, Cap Ab/MP 25 µg/mg
[15] = target: His-tagged recombinant human SMN protein (ProteinTech, catalog # ag14333) (human) (UniProt Q16637); test: Erenna sandwich assay, capture MABE230; SMN 2 pg/mL, MPs 5 µg/well, Det Ab 500 ng/mL, Cap Ab/MP 25 µg/mg
[16] = target: His-tagged recombinant human SMN protein (ProteinTech, catalog # ag14333) (human) (UniProt Q16637); test: Erenna sandwich assay, capture MABE230; SMN 2 pg/mL, MPs 5 µg/well, Det Ab 50 ng/mL, Cap Ab/MP 12.5 µg/mg
[17] = target: His-tagged recombinant human SMN protein (ProteinTech, catalog # ag14333) (human) (UniProt Q16637); test: Erenna sandwich assay, capture MABE230; SMN 2 pg/mL, MPs 10 µg/well, Det Ab 1000 ng/mL, Cap Ab/MP 25 µg/mg
[18] = target: His-tagged recombinant human SMN protein (ProteinTech, catalog # ag14333) (human) (UniProt Q16637); test: Erenna sandwich assay, capture MABE230; SMN 2 pg/mL, MPs 10 µg/well, Det Ab 100 ng/mL, Cap Ab/MP 12.5 µg/mg
[19] = target: His-tagged recombinant human SMN protein (ProteinTech, catalog # ag14333) (human) (UniProt Q16637); test: Erenna sandwich assay, capture MABE230; SMN 2 pg/mL, MPs 5 µg/well, Det Ab 1000 ng/mL, Cap Ab/MP 12.5 µg/mg
[20] = target: His-tagged recombinant human SMN protein (ProteinTech, catalog # ag14333) (human) (UniProt Q16637); test: Erenna sandwich assay, capture MABE230; human CSF sample 3 spiked with recombinant SMN 5.0 pg/mL (endogenous SMN also present)
[21] = target: His-tagged recombinant human SMN protein (ProteinTech, catalog # ag14333) (human) (UniProt Q16637); test: Erenna sandwich assay, capture MABE230; human CSF sample 4 spiked with recombinant SMN 5.0 pg/mL (endogenous SMN also present)
[22] = target: His-tagged recombinant human SMN protein (ProteinTech, catalog # ag14333) (human) (UniProt Q16637); test: Erenna sandwich assay, capture MABE230; human CSF sample 2 spiked with recombinant SMN 10.0 pg/mL (endogenous SMN also present)

Work on “ProteinTech anti-SMN2 (catalog #60154-1-Ig) (antibody)” yielded a detected events (DE) (detected events) [1] of 154, an event photons (EP) (event photons) [1] of 19500 and a detected events (DE) (detected events) [2] of 562. For the same substance, the event photons (EP) (event photons) [2] was 77500, the detected events (DE) (detected events) [3] was 125 and the event photons (EP) (event photons) [3] was 15900. It also gave a detected events (DE) (detected events) [4] of 330, an event photons (EP) (event photons) [4] of 44800 and a detected events (DE) (detected events) [5] of 1170. It also gave an event photons (EP) (event photons) [5] of 171000, a detected events (DE) (detected events) [6] of 2140 and an event photons (EP) (event photons) [6] of 312000. The detected events (DE) (detected events) [7] was 4330, the event photons (EP) (event photons) [7] was 706000 and the detected events (DE) (detected events) [8] was 12000. For the same substance, the event photons (EP) (event photons) [8] was 9.53e+06, the detected events (DE) (detected events) [9] was 13100 and the event photons (EP) (event photons) [9] was 4.64e+06. It also gave a detected events (DE) (detected events) [10] of 9360, an event photons (EP) (event photons) [10] of 2.04e+07 and a detected events (DE) (detected events) [11] of 278. It also gave a detected events (DE) (detected events) [12] of 479, a detected events (DE) (detected events) [13] of 560 and a detected events (DE) (detected events) [14] of 776. For the same substance, the detected events (DE) (detected events) [15] was 1930, the detected events (DE) (detected events) [16] was 450 and the detected events (DE) (detected events) [17] was 2670. For the same substance, the detected events (DE) (detected events) [18] was 1050, the detected events (DE) (detected events) [19] was 2590 and the detected events (DE) (detected events) [20] was 5980. It also gave a detected events (DE) (detected events) [21] of 5810 and a detected events (DE) (detected events) [22] of 9630.
